# Patent US5264366A, “Protease deficient bacillus” (Genencor, Inc., priority 1991, dated 1993)
# *1 amine or outer side, *2 acyl side, *3 side chain or, on linkers, in order; H or OH if unused. Where a SMILES comes first, the peptide text is derived from it. The star is where a group is joined. pNA = O=[N+]([O-])c1ccc(N*)cc1; Suc = O=C(CCC(=O)[*:2])[*:1]
# Key:
# Test in all cases: Kinetic parameters from progress curves, p-nitroanilide substrates
# [1] = target: T1, B. amyloliquefaciens subtilisin, wild type (gly-166) (Bacillus amyloliquefaciens, UniProt P00782); assay type: biochemical; conditions: 25° C., 0.1M tris buffer, pH 8.6
# T1 construct: codons for the mature subtilisin corresponding to that secreted by the B. amyloliquefaciens; made in house; host or cells: Bacillus subtilis BG2036 (protease deficient), plasmid pS4-5
# T1 sequence (P00782 108-382): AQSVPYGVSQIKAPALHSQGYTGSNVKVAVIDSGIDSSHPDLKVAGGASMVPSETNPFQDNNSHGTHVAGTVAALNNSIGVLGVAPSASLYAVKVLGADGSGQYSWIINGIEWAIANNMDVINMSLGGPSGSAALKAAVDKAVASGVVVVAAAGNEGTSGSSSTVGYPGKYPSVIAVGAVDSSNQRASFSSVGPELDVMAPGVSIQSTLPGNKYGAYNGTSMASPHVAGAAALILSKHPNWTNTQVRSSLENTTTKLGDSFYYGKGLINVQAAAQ
# Experimental: (§1) B. subtilis strain BG2036 obtained by the method of Example 11 was transformed by the plasmids of Examples 14, 15 or 20 and by pS4-5 as a control. Transformants were plated or cultured in shaker flasks for 16 to 48 h at 37° C. in LB media plus 12.5 μg/ml chloramphenicol. Mutant enzymatically active subtilisin was recovered by dialyzing cell broth against 0.01M sodium phosphate buffer, pH 6.2. The dialyzed broth was then titrated to pH 6.2 with 1N HCl and loaded on a 2.5×2 cm column of CM cellulose (CM-52 Whatman). After washing with 0.01M sodium phosphate, pH 6.2, the subtilisins (except mutants at position +222) were eluted with the same buffer made 0.08N in NaCl. The mutant subtilisins at position +222 were each eluted with 0.1M sodium phosphate, pH 7.0. The purified mutant and wild type enzymes were then used in studies of oxidation stability, Km, Kcat, Kcat/Km ratio, pH optimum, and changes in substrate specificity.
# (§2) Various mutants for glycine+166 were screened for modified Kcat, Km and Kcat/Km ratios. Kinetic parameters were obtained by analysis of the progress curves of the reactions. The rate of reaction was measured as a function of substrate concentration. Data was analyzed by fitting to the Michaelis-Menton equation using the non-linear regression algorithm of Marquardt (Marquardt, D. W. 1963, "J. Soc. Ind. Appl. Math." 11, 431-41).
# [2] = substrate: C[C@H](NC(=O)CCC(=O)O)C(=O)N[C@@H](C)C(=O)N1CCC[C@H]1C(=O)N[C@@H](Cc1ccccc1)C(=O)Nc1ccc([N+](=O)[O-])cc1; assay type: biochemical, B. amyloliquefaciens; conditions: other: 25° C., 0.1M tris buffer, pH 8.6
# Experimental: (§3) The procedure of Examples 13-14 was followed in substantial detail, except that the mutagenesis primer differed (the 37 mer shown in FIG. 13 was used), the two restriction enzymes were SacI and XmaIII rather than PstI and KpnI and the resulting constructions differed, as shown in FIG. 13.
# as §1, §2
# [3] = substrate: CC(C)[C@H](NC(=O)c1ccccc1)C(=O)NCC(=O)N[C@@H](CCCNC(=N)N)C(=O)Nc1ccc([N+](=O)[O-])cc1; assay type: biochemical; conditions: other: 25° C., 0.1M tris buffer, pH 8.6
# Experimental: as §1, §2
# [4] = substrate: CC(C)[C@H](NC(=O)c1ccccc1)C(=O)NCC(=O)N[C@@H](CCCNC(=N)N)C(=O)Nc1ccc([N+](=O)[O-])cc1; assay type: biochemical, B. amyloliquefaciens; conditions: other: 25° C., 0.1M tris buffer, pH 8.6
# Experimental: as §3, §1, §2
Molecule,Kcat [1] [s⁻¹],Km [2] [µM],kcat [2] [s⁻¹],Km [3] [µM],kcat [3] [s⁻¹],Km [4] [µM],kcat [4] [s⁻¹]
"C[C@H](NC(=O)CCC(=O)O)C(=O)N[C@@H](C)C(=O)N1CCC[C@H]1C(=O)N[C@@H](Cc1ccccc1)C(=O)Nc1ccc([N+](=O)[O-])cc1 [sAAPFpN, succinyl-L-Alanyl-L-Alanyl-L-Prolyl-L-Phenylalanyl-p-nitroanilide] (Suc-AAPF-pNA)",37,,,,,,
"B. amyloliquefaciens subtilisin variant ala + 166 (A166, glycine+166 substituted) (Bacillus amyloliquefaciens; G273A) (protein, codons for the mature subtilisin corresponding to that secreted by the B. amyloliquefaciens; made in house; host or cells: Bacillus subtilis BG2036 (protease deficient)) AQSVPYGVSQIKAPALHSQGYTGSNVKVAVIDSGIDSSHPDLKVAGGASMVPSETNPFQDNNSHGTHVAGTVAALNNSIGVLGVAPSASLYAVKVLGADGSGQYSWIINGIEWAIANNMDVINMSLGGPSGSAALKAAVDKAVASGVVVVAAAGNEGTSGSSSTVAYPGKYPSVIAVGAVDSSNQRASFSSVGPELDVMAPGVSIQSTLPGNKYGAYNGTSMASPHVAGAAALILSKHPNWTNTQVRSSLENTTTKLGDSFYYGKGLINVQAAAQ",,27,19,,,,
"B. amyloliquefaciens subtilisin variant phe + 166 (glycine+166 substituted) (Bacillus amyloliquefaciens; G273F) (protein, codons for the mature subtilisin corresponding to that secreted by the B. amyloliquefaciens; made in house; host or cells: Bacillus subtilis BG2036 (protease deficient)) AQSVPYGVSQIKAPALHSQGYTGSNVKVAVIDSGIDSSHPDLKVAGGASMVPSETNPFQDNNSHGTHVAGTVAALNNSIGVLGVAPSASLYAVKVLGADGSGQYSWIINGIEWAIANNMDVINMSLGGPSGSAALKAAVDKAVASGVVVVAAAGNEGTSGSSSTVFYPGKYPSVIAVGAVDSSNQRASFSSVGPELDVMAPGVSIQSTLPGNKYGAYNGTSMASPHVAGAAALILSKHPNWTNTQVRSSLENTTTKLGDSFYYGKGLINVQAAAQ",,14,3,,,,
"B. amyloliquefaciens subtilisin variant arg + 166 (glycine+166 substituted) (Bacillus amyloliquefaciens; G273R) (protein, codons for the mature subtilisin corresponding to that secreted by the B. amyloliquefaciens; made in house; host or cells: Bacillus subtilis BG2036 (protease deficient)) AQSVPYGVSQIKAPALHSQGYTGSNVKVAVIDSGIDSSHPDLKVAGGASMVPSETNPFQDNNSHGTHVAGTVAALNNSIGVLGVAPSASLYAVKVLGADGSGQYSWIINGIEWAIANNMDVINMSLGGPSGSAALKAAVDKAVASGVVVVAAAGNEGTSGSSSTVRYPGKYPSVIAVGAVDSSNQRASFSSVGPELDVMAPGVSIQSTLPGNKYGAYNGTSMASPHVAGAAALILSKHPNWTNTQVRSSLENTTTKLGDSFYYGKGLINVQAAAQ",,62,19,,,,
"B. amyloliquefaciens subtilisin, wild type (gly-166) (Bacillus amyloliquefaciens) (protein, codons for the mature subtilisin corresponding to that secreted by the B. amyloliquefaciens; made in house; host or cells: Bacillus subtilis BG2036 (protease deficient), plasmid pS4-5) AQSVPYGVSQIKAPALHSQGYTGSNVKVAVIDSGIDSSHPDLKVAGGASMVPSETNPFQDNNSHGTHVAGTVAALNNSIGVLGVAPSASLYAVKVLGADGSGQYSWIINGIEWAIANNMDVINMSLGGPSGSAALKAAVDKAVASGVVVVAAAGNEGTSGSSSTVGYPGKYPSVIAVGAVDSSNQRASFSSVGPELDVMAPGVSIQSTLPGNKYGAYNGTSMASPHVAGAAALILSKHPNWTNTQVRSSLENTTTKLGDSFYYGKGLINVQAAAQ",,,,1100,2,,
"B. amyloliquefaciens subtilisin variant asn + 166 (glycine+166 substituted) (Bacillus amyloliquefaciens; G273N) (protein, codons for the mature subtilisin corresponding to that secreted by the B. amyloliquefaciens; made in house; host or cells: Bacillus subtilis BG2036 (protease deficient)) AQSVPYGVSQIKAPALHSQGYTGSNVKVAVIDSGIDSSHPDLKVAGGASMVPSETNPFQDNNSHGTHVAGTVAALNNSIGVLGVAPSASLYAVKVLGADGSGQYSWIINGIEWAIANNMDVINMSLGGPSGSAALKAAVDKAVASGVVVVAAAGNEGTSGSSSTVNYPGKYPSVIAVGAVDSSNQRASFSSVGPELDVMAPGVSIQSTLPGNKYGAYNGTSMASPHVAGAAALILSKHPNWTNTQVRSSLENTTTKLGDSFYYGKGLINVQAAAQ",,140,26,,,120,1
"B. amyloliquefaciens subtilisin variant hys + 166 (glycine+166 substituted) (Bacillus amyloliquefaciens; G273H) (protein, codons for the mature subtilisin corresponding to that secreted by the B. amyloliquefaciens; made in house; host or cells: Bacillus subtilis BG2036 (protease deficient)) AQSVPYGVSQIKAPALHSQGYTGSNVKVAVIDSGIDSSHPDLKVAGGASMVPSETNPFQDNNSHGTHVAGTVAALNNSIGVLGVAPSASLYAVKVLGADGSGQYSWIINGIEWAIANNMDVINMSLGGPSGSAALKAAVDKAVASGVVVVAAAGNEGTSGSSSTVHYPGKYPSVIAVGAVDSSNQRASFSSVGPELDVMAPGVSIQSTLPGNKYGAYNGTSMASPHVAGAAALILSKHPNWTNTQVRSSLENTTTKLGDSFYYGKGLINVQAAAQ",,110,15,,,,
"B. amyloliquefaciens subtilisin variant asp + 166 (D166, glycine+166 substituted) (Bacillus amyloliquefaciens; G273D) (protein, codons for the mature subtilisin corresponding to that secreted by the B. amyloliquefaciens; made in house; host or cells: Bacillus subtilis BG2036 (protease deficient)) AQSVPYGVSQIKAPALHSQGYTGSNVKVAVIDSGIDSSHPDLKVAGGASMVPSETNPFQDNNSHGTHVAGTVAALNNSIGVLGVAPSASLYAVKVLGADGSGQYSWIINGIEWAIANNMDVINMSLGGPSGSAALKAAVDKAVASGVVVVAAAGNEGTSGSSSTVDYPGKYPSVIAVGAVDSSNQRASFSSVGPELDVMAPGVSIQSTLPGNKYGAYNGTSMASPHVAGAAALILSKHPNWTNTQVRSSLENTTTKLGDSFYYGKGLINVQAAAQ",,580,3,,,41,2
"B. amyloliquefaciens subtilisin variant glu + 166 (E166, glycine+166 substituted) (Bacillus amyloliquefaciens; G273E) (protein, codons for the mature subtilisin corresponding to that secreted by the B. amyloliquefaciens; made in house; host or cells: Bacillus subtilis BG2036 (protease deficient)) AQSVPYGVSQIKAPALHSQGYTGSNVKVAVIDSGIDSSHPDLKVAGGASMVPSETNPFQDNNSHGTHVAGTVAALNNSIGVLGVAPSASLYAVKVLGADGSGQYSWIINGIEWAIANNMDVINMSLGGPSGSAALKAAVDKAVASGVVVVAAAGNEGTSGSSSTVEYPGKYPSVIAVGAVDSSNQRASFSSVGPELDVMAPGVSIQSTLPGNKYGAYNGTSMASPHVAGAAALILSKHPNWTNTQVRSSLENTTTKLGDSFYYGKGLINVQAAAQ",,340,11,,,27,2
"B. amyloliquefaciens subtilisin variant lys + 166 (glycine+166 substituted) (Bacillus amyloliquefaciens; G273K) (protein, codons for the mature subtilisin corresponding to that secreted by the B. amyloliquefaciens; made in house; host or cells: Bacillus subtilis BG2036 (protease deficient)) AQSVPYGVSQIKAPALHSQGYTGSNVKVAVIDSGIDSSHPDLKVAGGASMVPSETNPFQDNNSHGTHVAGTVAALNNSIGVLGVAPSASLYAVKVLGADGSGQYSWIINGIEWAIANNMDVINMSLGGPSGSAALKAAVDKAVASGVVVVAAAGNEGTSGSSSTVKYPGKYPSVIAVGAVDSSNQRASFSSVGPELDVMAPGVSIQSTLPGNKYGAYNGTSMASPHVAGAAALILSKHPNWTNTQVRSSLENTTTKLGDSFYYGKGLINVQAAAQ",,34,15,,,,
